According to patent publication US20210380703A1:
Where a chain is given by its changes, count along the chain named.

B1: 365_H03 (antibody, V domains shown)
VH: EVQLLESGGGLVQPGGSLRLSCAASGFTFDDYGMNWVRQAPGKGLEWVAGINYNGGYKSYADSVKGRFTISRDNSKNTLYLQMNSLRAEDTAVYYCARSANWHDTALDYWGQGTLVTVSS
VL: DIQMTQSPSSLSASVGDRVTITCRASQSILSYVNWYQQKPGKAPKLVIYAATSLHSGVPSRFSGSGSGTDFTLTISSLQPEDFATYYCQQSYNNPLTFGGGTKVEIK
B2: 367_B03 (antibody, V domains shown)
VH: B1 VH with D30S, D31S
VL: B1 VL with S31T, V33L, V47L, H55A, N94L
B3: 366_H07 (antibody, V domains shown)
VH: B1 VH with D30S, D31S, N35H, A49S, K58T
VL: B1 VL with L30I, A51V, L54R, H55A, N93E
B4: 366_F05 (antibody, V domains shown)
VH: B1 VH with D30S, D31S, G33S, G50N, G55S, A106H
VL: B1 VL with S31T, V33L, V47L, L54R, H55A, Y92D, N94T
B5: 366_F07 (antibody, V domains shown)
VH: B1 VH with D30S, G33S, G55S, K58T, A106H
VL: B1 VL with L30I, S31T, V33L, V47L, L54R, H55A, N93E, N94T
B6: 366_D04 (antibody, V domains shown)
VH: B1 VH with D30S, D31S, G33S, A49S, K58T
VL: B1 VL with L30S, V47L, A51T, L54R, H55A, N93E, N94T
B7: 366_H06 (antibody, V domains shown)
VH: B1 VH with D30S, D31S, A49S, G50S, K58T, S59G
VL: B1 VL with V33L, V47L, A51T, L54R, H55A, N93D, N94T
B8: 366_H08 (antibody, V domains shown)
VH: B1 VH with D30S, G50S, G55S, K58T, A106H
VL: B1 VL with V47L, L54R
B9: 367_B08 (antibody, V domains shown)
VH: B1 VH with D30S, A49S, S59G
VL: B1 VL with S31T, V33L, L54R, H55A, N93D
B10: 367_A05 (antibody, V domains shown)
VH: B1 VH with D30S, A49S, G50S, S59G
VL: B1 VL with V33L, A51V, L54R, H55A, N93D, N94S
B11: 366_A07 (antibody, V domains shown)
VH: B1 VH with D30S, D31S, N35H, G50S, K58T, S59G
VL: B1 VL with L30V, L54R, N93E, N94S
B12: 367_A04 (antibody, V domains shown)
VH: B1 VH with D30S, D31S, G33S, A49S, G50N, G55S
VL: B1 VL with L30I, S31T, V33L, V47L, L54R, H55A, Y92D, N93D, N94S
B13: 366_F04 (antibody, V domains shown)
VH: B1 VH with D30S, A49S, K58T
VL: B1 VL with A51T, L54R, N93E, N94S
B14: 366_B12 (antibody, V domains shown)
VH: B1 VH with D30S, D31S, G33S, G55S, S59G
VL: B1 VL with S31T, V47L, L54R, H55A, N93D
B15: 366_G04 (antibody, V domains shown)
VH: B1 VH with D30S, D31S, G33S, A49S, G55S, K58T
VL: B1 VL with L30I, S31T, V33L, V47L, L54R, H55A, Y92D, N93D, N94T
B16: 365_H11 (antibody, V domains shown)
VH: B1 VH with D30S, D31S, G33S, A49S, G55S, K58T, S59G
VL: B1 VL with S31T, V33L, V47L, L54R, H55A, N93D, N94S
B17: 366_B08 (antibody, V domains shown)
VH: B1 VH with D31S, A49S, G50N, S59G, A106H
VL: B1 VL with L30V, V33L, V47L, L54R, N93D
B18: 366_B10 (antibody, V domains shown)
VH: B1 VH with D30S, D31S, A49S, G55S, K58T
VL: B1 VL with L30I, V33L, V47L, L54R, H55A, N93D
B19: 366_G05 (antibody, V domains shown)
VH: B1 VH with D31S, A49S, G50N, K58T
VL: B1 VL with L30I, L54R, H55A, N93E
B20: 366_E10 (antibody, V domains shown)
VH: B1 VH with D31S, A49S, S59G, A106H
VL: B1 VL with L54R, N93S, N94L
B21: 367_B07 (antibody, V domains shown)
VH: B1 VH with D30S, G33S, G55S, K58T, S59G, A106H
VL: B1 VL with L30I, V47L, H55A, N94L
B22: 374_H03 (antibody, V domains shown)
VH: B1 VH with D30S, D31S, A49S, G55S
VL: B1 VL with L54R, H55A, N93D, N94S
B23: 374_E05 (antibody, V domains shown)
VH: B1 VH with D30S, D31S, G33S, K58T
VL: B1 VL with Y32F, L54R, H55A, N94L
B24: 374_E08 (antibody, V domains shown)
VH: B1 VH with D30S, D31S
VL: B1 VL with V33L, V47L, L54R, N93D, N94L
B25: 374_F01 (antibody, V domains shown)
VH: B1 VH with D31S, G33S, A49S, G50N, K58T, S59G
VL: B1 VL with L54R, N93E
B26: 374_F02 (antibody, V domains shown)
VH: B1 VH with D31S, G33S, G50N, G55S, K58T
VL: B1 VL with L30V, V33L, V47L, T52S, H55Q, N93E, N94L
B27: 374_F04 (antibody, V domains shown)
VH: B1 VH with D30S, D31S, A49S, G55S
VL: B1 VL with S31T, V47L, L54R, H55A, N94S
B28: 374_G04 (antibody, V domains shown)
VH: B1 VH with D30S, D31S, G33S, K58T, S59G
VL: B1 VL with S31T, V33L, H55A, N93D
B29: 374_E11 (antibody, V domains shown)
VH: B1 VH with D30S, D31S, A49S, G50N, K58T
VL: B1 VL with L30V, S31T, V33L, L54R, H55A, N93D, N94S
B30: 374_G06 (antibody, V domains shown)
VH: B1 VH with D30S, D31S, N35H, G50S, K58T
VL: B1 VL with V33L, V47L, A51V, L54R, H55A, N93D, N94L
B31: 374_E02 (antibody, V domains shown)
VH: B1 VH with D30S, D31S, G33S, A49S, K58T
VL: B1 VL with V33L, V47L, H55A, N93D, N94L
B32: 374_F11 (antibody, V domains shown)
VH: B1 VH with D31S, G33S, A49S, G50N, K58T, S59G
VL: B1 VL with V33L, V47L, A51V, H55A, N93E, N94S
B33: 374_F10 (antibody, V domains shown)
VH: B1 VH with D30S, D31S, G33S, A49S, K58T
VL: B1 VL with V33L, L54R, H55A, N93D
B34: 374_G07 (antibody, V domains shown)
VH: B1 VH with D30S, D31S, G33S, A49S, G55S
VL: B1 VL with L30I, V33L, V47L, L54R, H55A, N93D, N94S

Each binder was assayed against Human Fc (human) (assay: ELISA; negative control).

optical density [OD] | Binder
0.366 | B1
0.318 | B2
0.285 | B3
0.279 | B4
0.353 | B5
0.338 | B6
0.285 | B7
0.417 | B8
0.37 | B9
0.269 | B10
0.309 | B11
0.267 | B12
0.281 | B13
0.311 | B14
0.31 | B15
0.375 | B16
0.403 | B17
0.424 | B18
0.28 | B19
0.271 | B20
0.236 | B21

The binders below were run against human Fc (human) (assay: ELISA; negative control).

optical density [OD] | Binder
0.162 | B22
0.244 | B23
0.251 | B24
0.165 | B25
0.169 | B26
0.163 | B27
0.161 | B28
0.186 | B29
0.25 | B30
0.527 | B31
0.191 | B32
0.524 | B33
0.214 | B34
